This is an account of results in patent US20140120115A1 (MorphoSys, published 2014).

Bounds are passed on as bounds.

The target of test [1] is T1, recombinant human macrophage migration inhibitory factor (MIF) (human, UniProt P14174 2-115, biotinylated (Amersham ECL Protein Biotinylation kit; sites not stated)).
T1 construct: also called human MIF; biotinylated MIF
The test is described as follows: ELISA, antibody at 6.25 nM on recombinant MIF (FIG. 2). As for the experimental part: (§1) Cross-reactivity of antibodies to human MIF and human D-DT was determined by ELISA. Biotinylated recombinant human MIF or D-DT with a concentration of 1 μg/ml were coated on reacti-bind neutravidin coated black 384-well plates (Thermo Scientifc) for 1, 5 h at room temperature. Reacti-bind neutravidin plates had been pretreated with PBS/5% skim milk powder before. After washing with PBST purified IgGs were applied in a concentration of 6.25 nM on a MIF or a D-DT coated plate respectively and incubated for 2 hours at room temperature. After subsequent washing antigen-specific bound IgG was detected via AP-Goat-anti-human IgG Fc-γ fragment specific (Fa Jackson ImmunoResearch) secondary antibody and application of Attophos (Fa ROCHE) according to the manufacturer's manual. Fluorescence intensity was measured via Tecan Reader GeniosPro and fluorescence intensity for the individual clones was compared to control antibody.

Test [2] has as its target T2, recombinant human D-dopachrome tautomerase (D-DT) (human, UniProt P30046 2-118, biotinylated (Amersham ECL Protein Biotinylation kit; sites not stated)).
T2 construct: Used biotinylated on neutravidin plates; also called human D-DT
The test is described as follows: ELISA, antibody at 6.25 nM on recombinant D-DT (FIG. 2). The procedure: as §1

The target in test [3] is T1, recombinant human macrophage migration …. The test is described as follows: ELISA, IgG at 6.25 nM on biotinylated human MIF on neutravidin plate. As for the experimental part:
as §1
(ELISA stands for enzyme-linked immunosorbent assay.)

Test [4] has as its target T2, recombinant human D-dopachrome …. As to the kind of experiment: ELISA, IgG at 6.25 nM on biotinylated human D-DT on neutravidin plate. As for the experimental part: as §1
Test [5] deals with T1, recombinant human macrophage migration …. The test is described as follows: ELISA, IgG titrated (0-166 nM) on biotinylated human MIF on neutravidin plate. The procedure:
(§2) For further characterization, the EC₅₀ concentration for each of the cross-reactive antibodies to MIF and to D-DT was determined based on the ELISA setting according to Example 1. Concentrations of each of the individual antibodies were titrated and 8 distinct concentrations from 0 nM to 166 nM were applied side by side on a plate coated with MIF and a plate coated with D-DT. Biotinylated recombinant human MIF or D-DT with a concentration of 1 μg/ml were coated on reacti-bind neutravidin coated black 384-well plates (Thermo Scientifc) for 1, 5 h at room temperature. Reacti-bind neutravidin plates had been pretreated with PBS/5% skim milk powder before. After washing with PBST purified IgGs were added to the MIF or D-DT coated plate respectively and incubated for 2 hours at room temperature. After subsequent washing antigen-specific bound IgG was detected via AP-Goat-anti-human IgG Fc-γ fragment specific (Fa Jackson ImmunoResearch) secondary antibody and application of Attophos (Fa ROCHE) according to the manufacturer's manual. Fluorescence intensity was measured via Tecan Reader GeniosPro and fluorescence intensity for the individual clones was plotted in a typical antibody titration curve. EC₅₀ values were determined with the program GraphPad Prism using non-linear regression analysis.

Test [6] has as its target T2, recombinant human D-dopachrome …. The test is described as follows: ELISA, IgG titrated (0-166 nM) on biotinylated human D-DT on neutravidin plate. The procedure:
as §2

In test [7] the target is T1, recombinant human macrophage migration …. As to the kind of experiment: ELISA; lower end of the group's range, tied to C on MIF by Table 2. As for the experimental part:
as §2

Test [8] addresses T2, recombinant human D-dopachrome …. As to the kind of experiment: ELISA; upper end of the group's range, tied to A on D-DT by Table 2. The procedure: as §2

T2 sequence (P30046 2-118 limits assumed): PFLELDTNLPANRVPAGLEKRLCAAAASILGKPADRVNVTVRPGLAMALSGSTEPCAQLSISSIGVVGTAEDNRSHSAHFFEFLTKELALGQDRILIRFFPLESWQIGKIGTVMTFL
T1 sequence (P14174 2-115 limits assumed): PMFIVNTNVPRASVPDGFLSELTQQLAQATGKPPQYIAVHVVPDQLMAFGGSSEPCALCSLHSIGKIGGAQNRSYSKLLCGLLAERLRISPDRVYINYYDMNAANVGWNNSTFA

B1: MOR014116 (antibody, V domains shown)
VH: QVQLVQSGAEVKKPGSSVKVSCKASGGTFSDYAISWVRQAPGQGLEWMGLIIPLFGTANYAQKFQGRVTITADESTSTAYMELSSLRSEDTAVYYCARSPAYQLVTPYYYVSDWFDVWGQGTLVTVSS
VL: DIVLTQPPSVSGAPGQRVTISCSGSSSNIGSNYVSWYQQLPGTAPKLLIYDNSERPSGVPDRFSGSKSGTSASLAITGLQAEDEADYYCQSWDASPWSYVFGGGTKLTVLG
notes: also called antibody B
What is called EC50 is the concentration giving half of the maximal effect. Take B1: the “fold fluorescence intensity above background” value in test [1] and in test [2] was > 5 fold each time. The “fold signal intensity compared to the negative control” value (from here on “fold signal intensity”) in test [3] and in test [4] was ≥ 5 fold throughout. Further, the concentration for a half-maximal effect (EC50) in test [5] was 0.486 nM; in test [6] it was 8.47 nM.

B2: MOR014138 (antibody, V domains shown)
VH: QVQLVQSGAEVKKPGSSVKVSCKASGGTFTSYAIHWVRQAPGQGLEWMGRIIPHFGTAYYAQKFQGRVTITADESTSTAYMELSSLRSEDTAVYYCARVQVYMSVLGWGYENYMDVWGQGTLVTVSS
VL: DIVLTQSPATLSLSPGERATLSCRASQSVSAFQLGWYQQKPGQAPRLLIYGASTRATGIPARFSGSGSGTDFTLTISSLEPEDFAVYYCQQYIQYPYTFGQGTKVEIKR
notes: also called antibody C
On to B2, for which the “fold fluorescence intensity above background” value in test [1] and in test [2] was > 5 fold in each case. In addition, the results for the EC50 in test [7], in test [5] and in test [6] were 0.3 nM, 0.36 nM and 2.29 nM, respectively. In addition, the “fold signal intensity” value in test [3] and in test [4] was ≥ 5 fold in each case.

B3: MOR014093 (antibody, V domains shown)
VH: QVQLLESGGGLVQPGGSLRLSCAASGFTFSDYYMDWVRQAPGKGLEWVSAISSSGSTTYYADSVKGRFTISRDNSKNTLYLQMNSLRAEDTAVYYCARGNLFGSTYVMGFDHWGQGTLVTVSS
VL: DIELTQPPSVSVSPGQTASITCSGDSIGSTHVSWYQQKPGQAPVLVIYRKSNRPSGIPERFSGSNSGNTATLTISGTQAEDEADYYCSSWDSESVVFGGGTKLTVLG
notes: also called antibody A
Regarding B3, the “fold fluorescence intensity above background” value in test [1] and in test [2] was > 5 fold each time. Also, the concentration giving a half-maximal response (EC50) came to 22 nM in test [8], 1.14 nM in test [5] and 21.2 nM in test [6]. The “fold signal intensity” value in test [3] and in test [4] was ≥ 5 fold each time.
